The source of these data is patent US20050106647A1.

Test [1] has as its target PA-BODIPY conjugate (Bacillus anthracis protective antigen conjugated to BODIPY FL) (Bacillus anthracis) (UniProt P13423).
The target is the same in test [2]. The source holds these as a separate data set.

Like-named read-outs stand apart in the source and are kept apart here.

Sequence of PA-BODIPY conjugate (Bacillus anthracis protective antigen conjugated to BODIPY FL) (Bacillus anthracis) (P13423 30-764 limits assumed): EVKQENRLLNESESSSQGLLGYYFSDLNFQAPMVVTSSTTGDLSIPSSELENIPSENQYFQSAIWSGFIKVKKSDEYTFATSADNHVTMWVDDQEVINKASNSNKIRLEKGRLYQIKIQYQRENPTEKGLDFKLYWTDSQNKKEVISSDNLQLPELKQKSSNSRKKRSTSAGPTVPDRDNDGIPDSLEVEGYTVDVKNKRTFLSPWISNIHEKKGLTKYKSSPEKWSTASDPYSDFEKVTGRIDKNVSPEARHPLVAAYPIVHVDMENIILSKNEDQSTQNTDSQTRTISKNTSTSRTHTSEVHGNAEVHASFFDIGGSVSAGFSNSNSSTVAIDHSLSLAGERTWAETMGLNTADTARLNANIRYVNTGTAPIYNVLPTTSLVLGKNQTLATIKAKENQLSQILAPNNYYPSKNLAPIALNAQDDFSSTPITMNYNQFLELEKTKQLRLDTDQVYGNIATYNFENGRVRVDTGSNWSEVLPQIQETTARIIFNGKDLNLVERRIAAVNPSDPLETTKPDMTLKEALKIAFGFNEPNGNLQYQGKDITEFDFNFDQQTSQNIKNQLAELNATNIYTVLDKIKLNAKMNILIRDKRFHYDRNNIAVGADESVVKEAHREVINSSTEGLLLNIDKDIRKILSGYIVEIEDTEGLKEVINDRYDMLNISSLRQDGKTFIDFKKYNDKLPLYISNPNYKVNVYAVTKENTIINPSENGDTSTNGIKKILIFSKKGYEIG
Sequence of NlpA-[Dig scFv] (26-10 anti-digoxin/digoxigenin scFv) fusion anchored on the E. coli inner membrane (P04846 whole entry, looked up, the tested form may be a part): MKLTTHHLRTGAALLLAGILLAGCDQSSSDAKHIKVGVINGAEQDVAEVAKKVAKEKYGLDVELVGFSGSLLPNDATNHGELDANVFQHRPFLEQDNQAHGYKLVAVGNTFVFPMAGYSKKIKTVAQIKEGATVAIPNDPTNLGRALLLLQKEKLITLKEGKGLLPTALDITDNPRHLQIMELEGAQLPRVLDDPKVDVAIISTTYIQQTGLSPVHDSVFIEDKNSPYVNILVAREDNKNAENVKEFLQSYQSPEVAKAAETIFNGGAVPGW
Sequence of 26-10 anti-digoxin/digoxigenin scFv-g3p fusion (pAK200) (P69168 268-424): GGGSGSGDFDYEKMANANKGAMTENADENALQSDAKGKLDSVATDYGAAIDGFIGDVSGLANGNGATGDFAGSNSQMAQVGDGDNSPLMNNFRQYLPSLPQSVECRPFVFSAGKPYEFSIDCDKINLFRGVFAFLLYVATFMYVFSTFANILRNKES

Consider “26-10 anti-digoxin/digoxigenin scFv-g3p fusion (pAK200) (from UniProt P69168 268-424)”, for which the mean fluorescence (M) in test [1] turned out to be 7.25.

As for “NlpA-[Dig scFv] (26-10 anti-digoxin/digoxigenin scFv) fusion anchored on the E. coli inner membrane (from UniProt P04846 24-29)”, the figures for the mean fluorescence (M) in test [1] and in test [2] were 4.48 and 2.97, respectively.
